This data set is described as follows: label from the status in PepcDB records.
In the case of “MIALPAWLTDERLSEDIEPLLRQTDNESLERLAAEAQAVTLRRFGRVISLYTPLYLSNFCSSGCVYCGFASDRRSPRRKLDTDEIEKELLAMKALGVSDVLLLTGERTNSVGFDYLRRAVDIAARHMPRVAVEAFPMSVAEYRGLAECGCTGLTIYQETYDPDHYRELHRWGPKQDFLERLETPERAITGGIRSVGIGALLGLSEPVGEALAVLRHARYLCKTYWKAGVTVSFPRIRPQEGGFQPSFTVSDRFLARMIFAFRIGMPDVDLVLSTRESSNFRDGMAGLGITRMSIASRTTVGGYVEKETAGASQFEVSDNRSVEAFCAALRAKDLEPVFKNWDAAYNNPLPAEECT”, the protein production entry is recorded as “failed”.
For “GKSFDAVRRTLSTELAQLRDDISRLMQAAVEAGAEAADDGEAVVISGERKLLDVTDIASDMDRLRKMFSLFEKKTDLLQLLDVSSRAQGVQIYIGGDSQLVPMEEVSVITAPYGVDGKVIGTLGVIGPTRMAYERVIPIVDITARLLSNALSHNQ”, the protein production result is reported as “failed”.
Take “MMTLIRITSADDSRLNRLIPLYEESFPESERRKIGQLKRMIENHAPMYFNAIECDGELSGMFVYWDMGDFYYLEHLAVFPEMRNKKIGQQVLDYVAEHLKGVRLLEVEPTEDEMTTRRVNYYRRNGYEVLDKTYVQPSYHA”: the protein production result was “failed”.
With “MSIASLIGTVGGVGYLRPAPGTWGSLAALPLAWVLHQLGGFPLLALATLGAFVAGLWATRVMTAGQTDHDPSEIVIDEVAGQFLALWALSLPAWSHGIEISALWPGWIAAFVLFRLFDITKPGPVGWADRRGDPMGVMLDDIIAGLFAAIGTALLAALSHGVLGL”, the protein production result was “failed”.
In the case of “MTETHQQLMKLPVNQVFFKYFVPATLGLILMSANILIDGLFVGNGIGTAALAGVNLSYPVISLIMAIALWIGIGGATKYSISIGENRPKKASSIFSLALFLALIISVLLGVFGILNIQTISIWLGANSDTSSFVIEYLSVMFLFGWVITLEQVLSIFVRNDGSPKLSMMALATTSIVNIILNFYTIMILDMGVTGAAISTVLGGFAGLLVLSLHFFNRQAQLRRPAFQWSWKSLMHIFAIGFPSFLAEAGLLVFVTGYNLAMASLAGTEGVAAFSVINYLHGFMFLSFFGIEMALQPMISYYHGAEETEQIKSSMKIGEKTAVILGILLLVIGWGAAPFLVGLFGIESTEIQQLAIDGIRLFFIGYTFLGYNFVYMSYFQSIGRAGSSVVIIILRSFVSLFILLWILPKFIGVTGVWLSLPLSEFFVAVLLFFIARKHVMGKGNPAIGKG” it was “failed”; in that of “MFVRSHCLEVTNLRKWFYYFNRRNKRMQWLKVILAGFIEIIWVTGLDQAHSLFTWIFTLFFIALSFFLVIDASKHLPVGTVYAFFVGIGAVGTVLVDMIFFNQPFTFTKIFLIMTLILGIIGLKLTTDATKEGR”, “failed”; in that of “MLADHARALDALRSALTPLKAELVAAELESIPVSRLKDVTEGRLRLGAVEAAGFTSVRGVYEAGRYELRQLPGVGEQTADRALAAARQIARAVAETVSVRLDVDHPEPRTTALVVALHRLVEAGPELRRALDAATRLDERLGALLPAARPAGGRLRLALAGRHRREDALAAAAETRDLVAEATARDVPLLLAQASTDLLRDPASDIEAWVDFELRSAEYYSQLAEVSEHRPDAEAGEGFLPSGVAERVHAQPLDDTHRRVSLRGYQSFGARFALAQRRVVLGDEMGLGKTVQAIAALAHLAAEGHSHFLVVCPASVLINWTREIRARSTLRALPVHGADRRDAYEEWRERGGVAVTTFDVLHSLPVPDTEKPGMLVVDEAHYVKNPDTRRAKAVTGWTAHCDRVLFLTGTPMENRVEEFRALVRHLQPALLPAVQGGGVAAGPHAFRKSVAPAYLRRNQQDVLTELPALVQVDEWEELSAADRDAYRKAVAEGNFMAMRRAAYADAEKSAKLGRLRELVAEAADNGLKVVVFSYFREVLATVQQCLGEPVLGPISGGVPAARRQRLVDAFAAIDGHAVLLAQIEAGGTGLNLQAASVVILCEPQVKPTMEHQAVARAHRMGQIRTVQVHRLLATDSVDDRLLRILKNKDRLFDAYARRSDIAEATPDAVDVSDASLARRIVEEEQQRLAARPADQPARTTS”, “failed”.
In the case of “MTWPARRVLYAIWQDPWMTVSRATYISRMLALVNWATWPDDADTSDTPAACVDGDCSRPNAPGERYPTFRWSDALVRELDAVLLSTEPYRFTEDHADALERQIGKPVLLVDGEMLSWYGSRAVAGARYLRSLAQGFLEHHHHHH”, the protein production entry is recorded as “failed”.
For “GTQAGVPAWSTIKVPISIAALRANPGNDVLMRQAITVSDNDAARALWDSLGSPREKVGAVLAQGGDPQTQVNDQPGMRTFC”, the protein production result is “failed”.
Regarding “MGYGKILVALDRSELAKEVLQQAIALGQKESSQLMVFYCIPVDSQDLSIYPSFYGEAAIGFSQIIKEHLEEQQTEAREWLQSIVQQVQEDGVACEWDVKVGEPGRWIRDMAKNWDADLVVLGRRGLKGLAEVFLGSVSSYVIHHVQCSVLIVQH”, the protein production result is “failed”.
“MSTYLIGDIHGCLDELLALLAQVNFDPQQDTLWLTGDLVARGPASLDVLRYVRSLGPAVRMVLGNHDLHLLAVYAGISRNKPKDRITPLLDAPDADELINWLRRQPVLQVDDQLKLIMAHAGITPQWDIETAKMCAREVEAVLSSDSYPLFLDAMYGDMPNNWSPELTGLARLRFSTNALTRMRFCFPNGQLDMICKDTPENAPAPLKPWFDLPRLVDPEYSIIFGHWASLEGKGVPEGIYGLDTGCCWGGDLTLLRWDDKRYFTQRAFKAEAEINNNNGFAAGEAVQH”: the protein production result is on record as “failed”.
For “MPQDPTERRVVVTGPPRRARRAFDYYRPRTEIDEQTTLGHTYVRSLMRSQLRAGLAVFAVLVLLVGPLPLVFAAIPDARRLTWAVLGFCLYAPLVLLARWYVRRAERNERDFVRLVEDR”, the protein production result is “failed”.
Turning to “MGLGIVLQGEKQVVIGDQILTYCAGQTMLTTIDVPVVSHTHNAKNHKPFLGLMLLLDLSMISKVVTQMEQLNIKEKVQPSFAVQPIDYVLIEAVQRLVTLLDEPILLSQLSPIIQQEIMIRLLAGVNGVYLRQLIRVGSVSERVAKVVNWLKQNFVETIRLDELADRFYMSSATLRQHFREVTGMSPLQYQKHLRLQQARHLLFNQNLEVGHTADLVGYESVSQFSREYARLFGATPLKDKQAAQLS”, the protein production result is listed as “failed”.
Take “MQSTIRKQLLQVFSEADGEFVSGQTISDKLGCSRTAVWKHMEDLRNEGYELEAVRRLGYRIASKPDKVTANEIQLGLQTKHIGRTVYFEESVESTQHIAAKLAYEGAEEGTIVVAEEQTAGRGRLSRKWHSPKGTGIWMSIILRPSIPVHHAPQLTLLAAVSVAQAIEKCTGVNVGIKWPNDILIQGKKAVGILTEMQADPDKINAVIMGIGINANQKQEHFDEEIQHIATSLAIESGKPIVRAELMQQIFLQLEKLYEEYLQNGFSVIKILWESYAVSIGKEINARTMRETITGVAKGITEDGVLLLEDHEGKVHHIHSADIEIK”: the protein production result is reported as “failed”.
As for “MNMNKTYIPKLDDLLGGGVKEGASIMFSASPGVDYEAFGYQMLNGRLDEGTRGFIFTNVEEPESIIYEFRSYGWDIESHIENGNLFFVDGSSPFLGMPSDQRYTVNDYSEIKDVVLNAINDIPGGVGIINNLSVIIDYLGNGDTLEIVEAWNRRASELDVNLVYLFTEWDYEPELIDKLRESMDCVVNLRTIEERVIIGQGFMVANSAWSEPPSTMVLFFVVQPGGVKVYVPKILVTGPYNSGKSSFVRAIATKSVSVDRKALSAFPTTIAMDIGHLEYKGFMADIFGTPGQERFDMILDVLSREAVGAFILLDSTAPETFARAKEMIRKTRAEAIPKVVVANKQDLPGALSPEEIREMMKLGADVPIVPASVTEGWGVRDALDTLLGLLYGGLEHHHHHH”, the protein production result was “failed”.
As to “GMKAADFTYVTVHGDNSRMSRLKAQYTMLFFYDPDCSNCRKFEKLFAEIPAFVEMVENGTLRVLAIYPDENREEWATKAVYMPQGWIVGWNKAGDIRTRQLYDIRATPTIYLLDGRKRVILKDTSMEQLIDYLATQAG”, the protein production result was “not failed”.
“MRLRHLSDPDSLPALDKSFAIERPALGLAPDAPPVRILLLYGSLRARSFSRLAVEEAARLLQFFGAETRIFDPSDLPLPDQVQSDDHPAVKELRALSEWSEGQVWCSPERHGQITSVMKAQIDHLPLEMAGIRPTQGRTLAVMQVSGGSQSFNAVNTLRLLGRWMRMFTIPNQSSIAKAFQEFDAAGRMKPSPYYDRIADVMEELVRFTALVRPHREALTDRYSERKAAGHVIDEATDLSSIAIAPQPLPESETS”: the protein production result is “not failed”.

The record behind these values is a protein production outcome set (Wang et al. 2014).
